Results taken from US20170189529A1 (CONTRAFECT, published 2017).
Like-named read-outs stand apart in the source and are kept apart here.

Experiments:
[1] = target: T1, hemagglutinin (HA) of influenza B virus B/Florida (Yamagata lineage) (influenza B virus B/Florida/06 …)
[2] = target: T1, hemagglutinin (HA) of influenza B virus …; assay: ForteBio Octet; antigen on the sensor, varying antibody concentrations
[3] = target: T2, hemagglutinin (HA) of influenza B virus B/Malaysia (Victoria lineage) (influenza B virus B/Malaysia/04 …); assay: as above
[4] = target: T1, hemagglutinin (HA) of influenza B virus …; assay: recombinant HA ELISA (AttoPhos fluorescence, mean of triplicates)
[5] = target: T2, hemagglutinin (HA) of influenza B virus …; assay: as above
[6] = target: recombinant HA of influenza B virus B/Mass/12 (Yamagata clade) (influenza B virus B/Mass/12 (Yamagata …)); assay: as above
[7] = target: recombinant HA of influenza B virus B/Wisconsin/10 (Yamagata clade) (influenza B virus B/Wisconsin/10 …); assay: as above
[8] = target: recombinant HA of influenza B virus B/Brisbane/08 (Victoria clade) (influenza B virus B/Brisbane/08 …); assay: as above
[9] = target: hemagglutinin of influenza A virus A/CA/04/09 (H1), on virus (influenza A virus H1 A/CA/04/09); assay: cell-based or functional assay
[10] = target: hemagglutinin of influenza A virus A/mallard/MN/AI08-3881/08 (H2), on virus (influenza A virus H2 …); assay: cell-based or functional assay
[11] = target: hemagglutinin of influenza A virus A/Mallard/MN/182753/98 (H9), on virus (influenza A virus H9 …); assay: cell-based or functional assay
[12] = target: H2 Japan/305/1957 HA monomer (influenza A virus H2 Japan/305/1957, UniProt P03451 16-525); assay: kinetic binding to HA monomer (instrument not stated)

Row | Binder | Kd [1] | Kd [2] | Kd [3] | fold reactivity over background [4] | fold reactivity over background [5] | fold reactivity over background [6] | fold reactivity over background [7] | fold reactivity over background [8] | IC50 (ug/ml), MDCK monolayer microneutralization assay [9] | IC50 (ug/ml), MDCK monolayer microneutralization assay [10] | IC50 (ug/ml), MDCK monolayer microneutralization assay [11] | Kd [12] | koff [12] | kon [12]
1 | TRL848 (antibody, V domains shown) VH: QVQLLESGGDVVQPGTSLRLSCAASGFSLWTSGMHWVRQAPGKGLEWVAVMSYDETKKYYADSVRGRFSISRDNSRNTLYLQMNSLRVEDTAVYFCAKPRLDYLDYFHAADSWGQGTLVSVSS VL: DIVLTQPPSVSVAPGQTATITCGGNYIGSKSVNWYQQRPGHAPVLVVYDDSDRPSGIPDRFSGSNSRSTATTATLTISRVEAGDEADYYCQVWETSEDLWVFGGGTKLTVLG | 1.7 nM | 3.9 nM | < 1 nM | 25.6 fold over background | 25.6 fold over background | 25.6 fold over background | 25.6 fold over background | 25.6 fold over background |  |  |  |  |  | 
2 | TRL842 (antibody, V domains shown) VH: QVQLLESGGDVVQPGTSLRLSCAASGFSLWTSGMHWVRQAPGKGLEWVAVMSYDETKKYYADSVRGRFSISRDNSRNTLYLQMNSLRVEDTAVYFCAKPRLDYLDYFHAADSWGQGTLVSVSS VL: DIVLTQPPSVSVAPGQTATITCGGNYIGSKSVNWYQQRPGHAPVLVVYDDSDRPSGIPDRFSGSNSRSTATTATLTISRVEAGDEADYYCQVWETSEDLWVFGGGTKLTVLG |  | 2.5 nM | < 1 nM | 25.6 fold over background | 25.6 fold over background | 25.6 fold over background | 25.6 fold over background | 25.6 fold over background |  |  |  |  |  | 
3 | TRL813 (antibody, V domains shown) VH: QVQLVESGGGLVQPGGSLRLSCAASGFIFGDFAIHWVRQASGKGLEWVARIRSGLNRFETAYAASVEGRLTISRDDSKSMAYLQMNNVKAEDTAVYLCTYLVGAVGFQHWGQGTLVTVSS VL: DIVMTQSPSTLSASVGDRVTITCRASQTIYRWLAWYQQKPGKAPKVLIYKASTLESGVPSRFSGSGSGTEFTLAISSLQPDDFATYYCQQYNSFPYRFGQGTKVEIKR |  |  |  | 25.6 fold over background | 25.6 fold over background | 25.6 fold over background | 25.6 fold over background | 25.6 fold over background |  |  |  |  |  | 
4 | TRL841 (antibody, V domains shown) VH: QVQLVESGGGVVQPGRSLRLSCAASGFTFSSYGIYWVRQAPGKGLEWVAFISYDEINKFYADSVKGRFTISRDNSKNTVFLQMNSLRDEDTAVYYCAKPLRGSYRYFDLWGRGTVVTVSS VL: DIVMTQPPATLSVSPGERATLSCGASQGLGSNLAWYQQKPGQAPRLLIYAASTRATGITARFSGSGSGTEFTLTINSLQSEDFALYYCQQYTYWPLTFGGGTKVEIKR |  |  |  | 25.6 fold over background | 25.6 fold over background | 25.6 fold over background | 25.6 fold over background | 25.6 fold over background |  |  |  |  |  | 
5 | TRL812 (antibody, V domains shown) VH: QVQLVQSGGGVVQPGRSLRLSCAASGFNFSSYGMHWVRQAPGKGLEWLSVIWSGGSNKYYADSVKGRFTISRDDSKNTVYLQMNSLRDEDTAVYYCARAHTALTRFRWLDPWGQGILVTVSS VL: DIVMTQSPATLSVSPGEGATLSCRASQGIGSNLAWYQHKPGQAPRLLIYAASTRATGVPARFSGSGSGTEFTLTISSLQSEDLAVYFCQQYNTWPLTFGGGTKVEIIR |  |  |  | 25.6 fold over background | 25.6 fold over background | 25.6 fold over background | 25.6 fold over background | 25.6 fold over background |  |  |  |  |  | 
6 | TRL856 (antibody, V domains shown) VH: QVQLVESGGGLVQPGGSLRLSCAASGFTFSDYWMVWVRQAPGKGLVWVSRISSDGSTTSYADSVKGPFTISRDNAKNTLYLQMNSLRAEDTAVYYCARVATPYYYESGFDYWGQGALVTVSS VL: DIVLTQSPSVSVAPGQTARITCGGNDIGSKSVHWYQQKPGQAPVLVVFDDRDRPSGIPERFSGSNSGNTATLTISRVEAGDEADYYCQVWDITSDLVVFGGGTKLTVVG |  |  |  | 25.6 fold over background | 25.6 fold over background | 25.6 fold over background | 25.6 fold over background | 24.1 fold over background |  |  |  |  |  | 
7 | TRL845 (antibody, V domains shown) VH: QVQLVQSGGDLVQPGGSLRLSCAASGFTFSRYSMNWVRQAPGMGLEWVAYISDTSRTIYYADSVKGRFTISRDNAKNSLYLQMKSLRDEDTAVYYCARDPDTPFVRAFDSWGQGTLVTVSS VL: DIVLTQSPSFLSASVGDRVTITCRASQLISSYFAWYQQKPGKPPKLLIYAASTLQSGVPSRFSGSGSGTQFSLTISSLQPEDFATYYCQQLNSYPPITFGQGTRLEIKR | 0.19 nM | 5.2 nM | < 1 nM | 25.6 fold over background | 25.6 fold over background | 25.6 fold over background | 25.6 fold over background | 25.6 fold over background |  |  |  |  |  | 
8 | TRL809 (antibody, V domains shown) VH: QVQLLESGGGVVRPGRSLRLACAGSGFTFSAYAMHWVRQAPGKGLEWVAHTSYDGRDSYYVDSVKGRFTISRDDSKNTLYLQMNSLRPEDTAVYYCAKVGPYTGYDDYNYYGMDVWGHGTTVTVSS VL: DIVLTQSPVSLAVSLGESATVNCKSSQSVLSNSKNLNYLAWYQHKPGQPPKLLIYWASTRESGVPDRFSGSGSGTDFTLTISSLQAEDVAVYYCQQHYSIPLTFGPGTKVDIKR |  | 0.18 nM | 0.2 nM | 25.6 fold over background | 25.6 fold over background | 25.6 fold over background | 25.6 fold over background | 25.6 fold over background |  |  |  |  |  | 
9 | TRL053 (antibody, V domains shown) VH: QVQLVQSGAEVRKPGSSVKVSCKVSGGIIRKYAINWVRQAPGQGLEWMGGIIAIFNTANYAQKFQGRVTITADESTSTVYMELSSLRSEDTALYYCARGMNYYSDYFDYWGQGSLVTVSP VL: EIVLTQSPGTLSLSPGERATLSCRASQSVRSNNLAWYQHKPGQAPRLLIFGASSRATGIPDRFSGSGSGTDFTLTISRLEPEDFAVYYCQQYGSSPALTFGGGTKVEIKR |  |  |  | 1.1 fold over background | 1.6 fold over background | 1 fold over background | 2.8 fold over background | 1 fold over background | 0.9 µg/mL | 0.3 µg/mL | 0.1 µg/mL | 12.3 nM | 6.8e-05 s⁻¹ | 5500 M⁻¹ s⁻¹
10 | TRL847 (antibody, V domains shown) VH: QVQLVESGGGLVQPGGSLRLSCVASGFTFSRFSMNWVRQAPGMGLEWVSYISDTGRTIYYADSVKGRFTISRDNDKNTLYLQMKSLRDEDSAFYYCARDPDTPFVRAFDSWGQGVLVTVSS VL: DIVMTQSPSFLSASVGDRVTITCRTSQVISSYLAWYQQRPGKAPKLLIYAASTLQSGVPSRFSGSGSGTRFSLTISNLQPEDFATYFCQQLTTYPPITFGQGTRLEIKR |  | 0.7 nM | < 1 nM | 25.6 fold over background | 25.6 fold over background | 25.6 fold over background | 25.6 fold over background | 25.6 fold over background |  |  |  |  |  | 
11 | TRL832 (antibody, V domains shown) VH: QVQLVESGPGLMKPSETLSLTCTVSGGSVSNYYWSWIRQPPGKGLEWIGYVFYSGSSNYNPSLNNPSLKSRVTISIDTSNNQFSLKLSSVTAADTAVYYCARGRVNSGYDWGPNFDSWGQGALVTVSS VL: DIVLTQAPSVSVSPGQTASITCSGDRLGEKFASWYQQKPGQSPVLVIYEDSKRPSGIPDRFSGSNSGNTATLTISGTQIMDEGDFFCQAWDSSTVVFGGGTKLTVLG |  | 1.7 nM | 0.2 nM | 25.6 fold over background | 25.6 fold over background | 25.6 fold over background | 25.6 fold over background | 25.6 fold over background |  |  |  |  |  | 
12 | TRL849 (antibody, V domains shown) VH: QVQLVESGPGLVKPSQTLSLTCTVSGGSISNGGYHWSWIRQHPGKGLEWIGNIYYRGSTFYDPSLKSRVTISVDTSKSQFSLKLTSVTAADTAVYYCARMPLANYDLLTGLYIGAFDLWGQGTMVTVSS VL: DIVLTQSPATLSVSPGERATLSCRASQSVNRNLAWFQQIPGQAPRLLIFDASTRAADIPARFSGGGSGAEFTLTVSSLQPEDFAVYYCQQYDKWPPGFGQGTKVEIKR |  | 0.2 nM | < 1 nM | 25.6 fold over background | 25.6 fold over background | 25.6 fold over background | 25.6 fold over background | 25.6 fold over background |  |  |  |  |  | 
